# Patent publication US8916149B2, “Preventing and treating sepsis” (University of Rochester, priority 2008, dated 2014)
# Test system: β1 and β3 integrin expressing HEK293T cells
# Assay: Yeast surface display binding of mutant APCs on HEK293 cells
# Parameters: species or system human
# From the text: A broad-range of hosts and scaffolds based on ribosome display, phage display, and cell-surface display are used widely as systems to implement directed evolution (Hoogenboom, Nat. Biotechnol. 23:1105 (2005)). Among the cell surface display systems based on microbial and eukaryotic hosts, the yeast system offers the unique advantage of eukaryotic machinery that enables post-translational modification, glycosylation, and disulfide isomerization (Wittrup, Curr. Opin. Biotechnol. 12:392 (2001)). […] The yeast display system that was used employs the α-agglutinin yeast adhesion receptor to display recombinant proteins on cell surface of S. cerevisiae. The receptor consists of two proteins, Aga1 and Aga2 (FIG. 6). Aga1 is secreted and becomes covalently attached to β-glucan in the extracellular matrix of the yeast cell wall. Aga2 binds to Aga1 through two disulfide bonds, making it possible to express a protein of interest fused to Aga2.
# Mixtures of 1 μg cDNA library and 0.5 μg of the Nhe1/BamH1 linearized pCTCON vector in 5 μl were transformed into 10^8 yeast cells by electroporation, which lead to ˜10^6 diversity in the library. Inside the cells, the cDNA library was recombined into the vector by the endogenous Gap repair protein. The yeast library of the human protein C was activated by thrombin. […]
molecule,measurement,value
"KR146/147GG+R177G: APC with combined substitutions K146G, R147G and R177G (protein) ANSFLEELRHSSLERECIEEICDFEEAKEIFQNVDDTLAFWSKHVDGDQCLVLPLEHPCASLCCGHGTCIDGIGSFSCDCRSGWEGRFCQREVSFLNCSLDNGGCTHYCLEEVGWRRCSCAPGYKLGDDLLQCHPAVKFPCGRPWGGMEKKRSHLKRDTEDQEDQVDPRLIDGKMTGRGDSPWQVVLLDSKKKLACGAVLIHPSWVLTAAHCMDESKKLLVRLGEYDLRRWEKWELDLDIKEVFVHPNYSKSTTDNDIALLHLAQPATLSQTIVPICLPDSGLAERELNQAGQETLVTGWGYHSSREKEAKRNRTFVLNFIKIPVVPHNECSEVMSNMVSENMLCAGILGDRQDACEGDSGGPMVASFHGTWFLVGLVSWGEGCGLLHNYGVYTKVSRYLDWIHGHIRDKEAPQKSWAP",binding of yeast expressing mutant APC on HEK293 cells compared to WT APC,further enhanced
